From publication PMC5224480 (Nucleic Acids Research, 2016)

Target: T1, β subunit of Thermotoga maritima RNA polymerase (tmβ) (Thermotoga maritima, UniProt P29398 1-1263)
T1 sequence (looked up): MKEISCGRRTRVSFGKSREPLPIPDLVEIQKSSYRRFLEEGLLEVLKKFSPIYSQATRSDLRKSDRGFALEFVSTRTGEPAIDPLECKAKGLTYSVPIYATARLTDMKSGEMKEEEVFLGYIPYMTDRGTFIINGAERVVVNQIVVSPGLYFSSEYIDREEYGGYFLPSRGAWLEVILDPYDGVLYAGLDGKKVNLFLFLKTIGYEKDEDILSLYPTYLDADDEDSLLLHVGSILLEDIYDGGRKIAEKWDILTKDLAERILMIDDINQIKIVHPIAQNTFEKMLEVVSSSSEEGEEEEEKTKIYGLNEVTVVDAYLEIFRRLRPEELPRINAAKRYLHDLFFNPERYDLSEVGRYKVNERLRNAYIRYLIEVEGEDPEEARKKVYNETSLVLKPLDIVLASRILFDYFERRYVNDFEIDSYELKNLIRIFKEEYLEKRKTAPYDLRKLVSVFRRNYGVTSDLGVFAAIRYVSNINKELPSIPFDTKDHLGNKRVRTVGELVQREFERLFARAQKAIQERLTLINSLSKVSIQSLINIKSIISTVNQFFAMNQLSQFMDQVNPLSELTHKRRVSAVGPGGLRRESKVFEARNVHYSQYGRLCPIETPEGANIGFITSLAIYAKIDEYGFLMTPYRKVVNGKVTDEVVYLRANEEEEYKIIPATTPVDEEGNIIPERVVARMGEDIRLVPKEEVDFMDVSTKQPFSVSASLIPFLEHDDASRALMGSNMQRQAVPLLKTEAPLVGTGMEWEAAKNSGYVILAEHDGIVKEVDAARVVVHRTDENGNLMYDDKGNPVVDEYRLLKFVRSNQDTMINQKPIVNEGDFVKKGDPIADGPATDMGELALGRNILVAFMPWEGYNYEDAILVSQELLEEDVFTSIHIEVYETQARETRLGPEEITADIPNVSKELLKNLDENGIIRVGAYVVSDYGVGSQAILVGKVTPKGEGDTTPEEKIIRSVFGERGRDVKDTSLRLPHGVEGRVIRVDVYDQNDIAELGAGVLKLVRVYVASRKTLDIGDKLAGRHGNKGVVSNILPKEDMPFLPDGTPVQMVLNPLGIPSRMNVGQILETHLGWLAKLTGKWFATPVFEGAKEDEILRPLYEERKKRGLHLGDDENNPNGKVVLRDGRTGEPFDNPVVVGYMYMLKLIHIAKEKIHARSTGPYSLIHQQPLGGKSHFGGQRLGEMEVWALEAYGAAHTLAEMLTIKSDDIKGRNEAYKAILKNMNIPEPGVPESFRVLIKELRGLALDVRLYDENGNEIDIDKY
Assay: NMR titration

binding result: binds
B1: tmNusG-DII (residues 42-233 of tmNusG) (domain or fragment, Thermotoga maritima, UniProt P29397 42-233, looked up)
chain: EEVVLDATSPSERLILSPKAKLHVNNGKDVNKGDLIAEEPPIYARRSGVIVDVKNVRKIVVETIDRKYTKTYYIPESAGIEPGLRVGTKVKQGLPLSKNEEYICELDGKIVEIERMKKVVVQTPDGEQDVYYIPLDVFDRDRIKKGKEVKQGEMLAEARKFFAKVSGRVEVVDYSTRKEIRIYKTKRRKLFP
